Experiment [1] has as its target T1, Full length GST-AL1 1-352 (tomato golden mosaic virus (TGMV), UniProt P03567 1-352).
T1 sequence: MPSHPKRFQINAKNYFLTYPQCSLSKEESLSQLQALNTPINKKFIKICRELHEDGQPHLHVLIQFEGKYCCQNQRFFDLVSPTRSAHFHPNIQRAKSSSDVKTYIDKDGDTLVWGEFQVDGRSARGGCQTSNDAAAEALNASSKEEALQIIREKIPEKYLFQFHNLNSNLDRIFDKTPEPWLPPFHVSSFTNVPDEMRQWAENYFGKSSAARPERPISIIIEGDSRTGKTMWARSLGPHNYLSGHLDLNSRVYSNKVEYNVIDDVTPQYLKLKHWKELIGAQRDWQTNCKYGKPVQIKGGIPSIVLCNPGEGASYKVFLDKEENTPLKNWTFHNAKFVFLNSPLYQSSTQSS
Briefly: GST co-purification on glutathione-sepharose from insect cells, immunoblot.

Experiment [2] has as its target T2, Wild type TGMV AL1 fused to the Gal4 DNA binding domain (pNSB736) (tomato golden mosaic virus (TGMV)).
The target in experiment [3] is T3, Maize Rb (amino acids 214-866) fused to the Gal4 DNA binding domain (Zm214C) (maize).
Experiment [4] deals with T2, Wild type TGMV AL1 fused to the Gal4 …. The source holds these as a separate data set.
The target of experiment [5] is T3, Maize Rb (amino acids 214-866) fused to …. This is another data set of the same source.
In experiment [6] the target is T2, Wild type TGMV AL1 fused to the Gal4 …. Briefly: yeast two-hybrid, beta-galactosidase activity.
For experiment [7], the target named is T4, TGMV AL1, wild type, full length, untagged (tomato golden mosaic virus (TGMV), UniProt P03567 1-352).
T4 construct: also called Rep; authentic AL1
T4 sequence: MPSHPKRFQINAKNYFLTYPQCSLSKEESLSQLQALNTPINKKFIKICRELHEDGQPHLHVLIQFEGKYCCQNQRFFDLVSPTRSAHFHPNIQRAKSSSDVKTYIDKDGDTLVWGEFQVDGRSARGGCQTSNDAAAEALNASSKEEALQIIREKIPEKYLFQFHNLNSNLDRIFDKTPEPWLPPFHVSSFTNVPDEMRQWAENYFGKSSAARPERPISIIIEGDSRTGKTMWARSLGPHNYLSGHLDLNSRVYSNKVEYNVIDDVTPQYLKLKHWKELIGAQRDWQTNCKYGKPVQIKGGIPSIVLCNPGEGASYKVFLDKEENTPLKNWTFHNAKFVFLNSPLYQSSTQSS
Briefly: GST co-purification from insect cells, immunoblot.

For experiment [8], the target named is T5, AL1 134-352 (tomato golden mosaic virus (TGMV), UniProt P03567 134-352).
T5 sequence: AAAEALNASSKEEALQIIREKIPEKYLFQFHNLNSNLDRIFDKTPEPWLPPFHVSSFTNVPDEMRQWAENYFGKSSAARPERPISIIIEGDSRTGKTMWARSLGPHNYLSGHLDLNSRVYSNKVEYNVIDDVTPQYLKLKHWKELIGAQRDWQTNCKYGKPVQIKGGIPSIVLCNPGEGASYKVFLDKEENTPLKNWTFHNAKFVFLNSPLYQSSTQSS
The experiment is described as follows: GST co-purification from insect cells, immunoblot.

In experiment [9] the target is T6, AL1 147-352 (tomato golden mosaic virus (TGMV), UniProt P03567 147-352).
T6 sequence: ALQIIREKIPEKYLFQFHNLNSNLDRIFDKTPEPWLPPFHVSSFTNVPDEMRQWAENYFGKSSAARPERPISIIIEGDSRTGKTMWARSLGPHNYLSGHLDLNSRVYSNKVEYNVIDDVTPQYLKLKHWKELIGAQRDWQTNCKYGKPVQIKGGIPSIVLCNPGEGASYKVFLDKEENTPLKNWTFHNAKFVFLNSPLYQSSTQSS
The experiment is described as follows: GST co-purification from insect cells, immunoblot.

The target in experiment [10] is T7, AL1 119-352 (tomato golden mosaic virus (TGMV), UniProt P03567 119-352).
T7 sequence: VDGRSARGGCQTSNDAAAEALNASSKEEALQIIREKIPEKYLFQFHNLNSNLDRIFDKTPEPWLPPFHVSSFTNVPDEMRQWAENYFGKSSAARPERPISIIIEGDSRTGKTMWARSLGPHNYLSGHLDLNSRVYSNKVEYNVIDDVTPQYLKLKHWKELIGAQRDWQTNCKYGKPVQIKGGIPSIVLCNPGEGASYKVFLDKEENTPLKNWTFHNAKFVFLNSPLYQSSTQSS
The experiment is described as follows: GST co-purification from insect cells, immunoblot.

Experiment [11] addresses T8, AL1 160-352 (tomato golden mosaic virus (TGMV), UniProt P03567 160-352).
T8 sequence: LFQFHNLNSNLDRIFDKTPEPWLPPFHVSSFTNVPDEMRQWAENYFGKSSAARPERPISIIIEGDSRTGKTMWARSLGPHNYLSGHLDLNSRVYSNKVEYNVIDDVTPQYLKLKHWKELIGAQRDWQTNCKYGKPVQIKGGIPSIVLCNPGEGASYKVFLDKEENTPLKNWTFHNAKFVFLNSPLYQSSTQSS
The experiment is described as follows: GST co-purification from insect cells, immunoblot.

This note sets out measurements from patent publication US20040205843A1 (NORTH CAROLINA STATE UNIVERSITY, published 2004).

Where two headings read alike, the source gives them in different places.

T3 sequence (P04386 1-147): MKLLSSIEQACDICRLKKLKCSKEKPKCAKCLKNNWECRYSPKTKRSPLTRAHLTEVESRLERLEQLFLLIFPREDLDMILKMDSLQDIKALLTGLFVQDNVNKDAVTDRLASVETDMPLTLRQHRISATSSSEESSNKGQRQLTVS

B1: AL1 1-168 (other)
chain: MPSHPKRFQINAKNYFLTYPQCSLSKEESLSQLQALNTPINKKFIKICRELHEDGQPHLHVLIQFEGKYCCQNQRFFDLVSPTRSAHFHPNIQRAKSSSDVKTYIDKDGDTLVWGEFQVDGRSARGGCQTSNDAAAEALNASSKEEALQIIREKIPEKYLFQFHNLNS
For B1, the binding result in experiment [1] was “no binding”.

B2: AL1 1-158 (other)
chain: MPSHPKRFQINAKNYFLTYPQCSLSKEESLSQLQALNTPINKKFIKICRELHEDGQPHLHVLIQFEGKYCCQNQRFFDLVSPTRSAHFHPNIQRAKSSSDVKTYIDKDGDTLVWGEFQVDGRSARGGCQTSNDAAAEALNASSKEEALQIIREKIPEK
As to B2, the binding result in experiment [1] was “no binding”.

B3: AL1 AAA136 (Leu) fused to the Gal4 activation domain (pNSB785) (other)
chain: MPSHPKRFQINAKNYFLTYPQCSLSKEESLSQLQALNTPINKKFIKICRELHEDGQPHLHVLIQFEGKYCCQNQRFFDLVSPTRSAHFHPNIQRAKSSSDVKTYIDKDGDTLVWGEFQVDGRSARGGCQTSNDLLLEALNASSKEEALQIIREKIPEKYLFQFHNLNSNLDRIFDKTPEPWLPPFHVSSFTNVPDEMRQWAENYFGKSSAARPERPISIIIEGDSRTGKTMWARSLGPHNYLSGHLDLNSRVYSNKVEYNVIDDVTPQYLKLKHWKELIGAQRDWQTNCKYGKPVQIKGGIPSIVLCNPGEGASYKVFLDKEENTPLKNWTFHNAKFVFLNSPLYQSSTQSS
As for B3, the “oligomer. (oligomerization activity relative to wild type)” value in [2] is 30 relative to wild type (100). Besides, the “Rep/Rb (Rb binding activity relative to wild type)” value in [3] is 8 relative to wild type (100).

B4: AL1 RS-R125 (Ala1) fused to the Gal4 activation domain (pNSB786) (other)
chain: MPSHPKRFQINAKNYFLTYPQCSLSKEESLSQLQALNTPINKKFIKICRELHEDGQPHLHVLIQFEGKYCCQNQRFFDLVSPTRSAHFHPNIQRAKSSSDVKTYIDKDGDTLVWGEFQVDGAAAAGGCQTSNDAAAEALNASSKEEALQIIREKIPEKYLFQFHNLNSNLDRIFDKTPEPWLPPFHVSSFTNVPDEMRQWAENYFGKSSAARPERPISIIIEGDSRTGKTMWARSLGPHNYLSGHLDLNSRVYSNKVEYNVIDDVTPQYLKLKHWKELIGAQRDWQTNCKYGKPVQIKGGIPSIVLCNPGEGASYKVFLDKEENTPLKNWTFHNAKFVFLNSPLYQSSTQSS
Take B4: the “oligomer. (oligomerization activity relative to wild type)” value in experiment [4] and in [2] was 27 relative to wild type (100) throughout. The “Rep/Rb (Rb binding activity relative to wild type)” value in experiment [3] is 20 relative to wild type (100).

B5: AL1 E--N140 + KEE146 (Ala4+5) fused to the Gal4 activation domain (pNSB757) (other)
chain: MPSHPKRFQINAKNYFLTYPQCSLSKEESLSQLQALNTPINKKFIKICRELHEDGQPHLHVLIQFEGKYCCQNQRFFDLVSPTRSAHFHPNIQRAKSSSDVKTYIDKDGDTLVWGEFQVDGRSARGGCQTSNDAAAAALAASSAAAALQIIREKIPEKYLFQFHNLNSNLDRIFDKTPEPWLPPFHVSSFTNVPDEMRQWAENYFGKSSAARPERPISIIIEGDSRTGKTMWARSLGPHNYLSGHLDLNSRVYSNKVEYNVIDDVTPQYLKLKHWKELIGAQRDWQTNCKYGKPVQIKGGIPSIVLCNPGEGASYKVFLDKEENTPLKNWTFHNAKFVFLNSPLYQSSTQSS
For the molecule B5, the “oligomer. (oligomerization activity relative to wild type)” value in [4] and in experiment [2] was 88 relative to wild type (100) in each case. In addition, the “Rep/Rb (Rb binding activity relative to wild type)” value in experiment [3] was 45 relative to wild type (100).

B6: AL1 KEE146 (Ala5) fused to the Gal4 activation domain (pNSB894) (other)
chain: MPSHPKRFQINAKNYFLTYPQCSLSKEESLSQLQALNTPINKKFIKICRELHEDGQPHLHVLIQFEGKYCCQNQRFFDLVSPTRSAHFHPNIQRAKSSSDVKTYIDKDGDTLVWGEFQVDGRSARGGCQTSNDAAAEALNASSAAAALQIIREKIPEKYLFQFHNLNSNLDRIFDKTPEPWLPPFHVSSFTNVPDEMRQWAENYFGKSSAARPERPISIIIEGDSRTGKTMWARSLGPHNYLSGHLDLNSRVYSNKVEYNVIDDVTPQYLKLKHWKELIGAQRDWQTNCKYGKPVQIKGGIPSIVLCNPGEGASYKVFLDKEENTPLKNWTFHNAKFVFLNSPLYQSSTQSS
B6: in experiment [5], the “RBR1 binding activity, percent of wild type” value is 16 % of wild type. The “AL1 interactions, percent of wild type AL1/AL1 mediated activation” value in [6] was 51 % of wild type.

B7: AL1 REK154 (Ala6) fused to the Gal4 activation domain (pNSB759) (other)
chain: MPSHPKRFQINAKNYFLTYPQCSLSKEESLSQLQALNTPINKKFIKICRELHEDGQPHLHVLIQFEGKYCCQNQRFFDLVSPTRSAHFHPNIQRAKSSSDVKTYIDKDGDTLVWGEFQVDGRSARGGCQTSNDAAAEALNASSKEEALQIIAAAIPEKYLFQFHNLNSNLDRIFDKTPEPWLPPFHVSSFTNVPDEMRQWAENYFGKSSAARPERPISIIIEGDSRTGKTMWARSLGPHNYLSGHLDLNSRVYSNKVEYNVIDDVTPQYLKLKHWKELIGAQRDWQTNCKYGKPVQIKGGIPSIVLCNPGEGASYKVFLDKEENTPLKNWTFHNAKFVFLNSPLYQSSTQSS
On to B7, for which, in experiment [5], the “fold reduction of RBR1 binding activity against wild type” value was 2 fold. The “oligomer. (oligomerization activity relative to wild type)” value in experiment [4] and in [2] was 57 relative to wild type (100) in each case. Also, in [3], the “Rep/Rb (Rb binding activity relative to wild type)” value was 69 relative to wild type (100).

B8: AL1 FQ118 (Ala13) fused to the Gal4 activation domain (pNSB872) (other)
chain: MPSHPKRFQINAKNYFLTYPQCSLSKEESLSQLQALNTPINKKFIKICRELHEDGQPHLHVLIQFEGKYCCQNQRFFDLVSPTRSAHFHPNIQRAKSSSDVKTYIDKDGDTLVWGEAAVDGRSARGGCQTSNDAAAEALNASSKEEALQIIREKIPEKYLFQFHNLNSNLDRIFDKTPEPWLPPFHVSSFTNVPDEMRQWAENYFGKSSAARPERPISIIIEGDSRTGKTMWARSLGPHNYLSGHLDLNSRVYSNKVEYNVIDDVTPQYLKLKHWKELIGAQRDWQTNCKYGKPVQIKGGIPSIVLCNPGEGASYKVFLDKEENTPLKNWTFHNAKFVFLNSPLYQSSTQSS
Take B8: the “oligomer. (oligomerization activity relative to wild type)” value in experiment [4] and in experiment [2] was 95 relative to wild type (100) in each case. In addition, the “Rep/Rb (Rb binding activity relative to wild type)” value in experiment [3] was 23 relative to wild type (100).

B9: AL1 K144 fused to the Gal4 activation domain (pNSB916) (other)
chain: MPSHPKRFQINAKNYFLTYPQCSLSKEESLSQLQALNTPINKKFIKICRELHEDGQPHLHVLIQFEGKYCCQNQRFFDLVSPTRSAHFHPNIQRAKSSSDVKTYIDKDGDTLVWGEFQVDGRSARGGCQTSNDAAAEALNASSAEEALQIIREKIPEKYLFQFHNLNSNLDRIFDKTPEPWLPPFHVSSFTNVPDEMRQWAENYFGKSSAARPERPISIIIEGDSRTGKTMWARSLGPHNYLSGHLDLNSRVYSNKVEYNVIDDVTPQYLKLKHWKELIGAQRDWQTNCKYGKPVQIKGGIPSIVLCNPGEGASYKVFLDKEENTPLKNWTFHNAKFVFLNSPLYQSSTQSS
For the molecule B9, in [5], the “RBR1 interactions, percent of wild type levels” value was 42 % of wild type.

B10: GST-AL1 119-180 (other)
chain: VDGRSARGGCQTSNDAAAEALNASSKEEALQIIREKIPEKYLFQFHNLNSNLDRIFDKTPEP
B10: the binding result in [7] is recorded as “binds”; in experiment [8], “binds”; in experiment [9], “no binding”; in experiment [10], “binds”; in [11], “no binding”.
